{"source": "paper PMC3180432", "key": {"[1]": {"target": "B7.1-Fc (mouse) (UniProt Q00609)", "test": "SPR; BIAcore 2000, CM5 chip, ligand immobilised by amine coupling, analyte protein injected at different molarities at 10 uL/min, HBS (0.01 M Hepes pH 7.4, 0.15 M NaCl, 0.005% P20), 25°C"}, "[2]": {"target": "B7-H1-Fc (mouse) (UniProt Q9EP73)", "test": "SPR; BIAcore 2000, CM5 chip, ligand immobilised by amine coupling, analyte protein injected at different molarities at 10 uL/min, HBS (0.01 M Hepes pH 7.4, 0.15 M NaCl, 0.005% P20), 25°C"}}}
{"substance": "B7-H1-Fc (from UniProt Q9EP73 19-239) (Fc fusion)", "values": [{"measurement": "Kd", "setting": "[1]", "result": 1070, "unit": "nM"}]}
{"substance": "B7.1-Fc (from UniProt Q00609 38-246) (Fc fusion)", "values": [{"measurement": "Kd", "setting": "[2]", "result": 380, "unit": "nM"}]}
{"substance": "PD-1-Fc (from UniProt Q02242 25-169) (Fc fusion)", "values": [{"measurement": "Kd", "setting": "[2]", "result": 820, "unit": "nM"}]}
